B1: fused FliT−FliD^C construct (FliD^C fused to the N terminus of FliT) [Salmonella enterica serovar Typhimurium ST313] / cytoplasmic domain of Salmonella enterica serovar Typhimurium FlhA (FlhA^C) [Salmonella enterica serovar Typhimurium … (parent complex)
chain 1: GAHMSIDETVARYKAQFTQLDTMMSKLNNTSSYLTQQFTAMNKSGGSGGSGSGGSGGMTSTVEFINRWQRIALLSQSLLELAQRGEWDLLLQQEVSYLQSIETVMEKQTPPGITRSIQDMVAGYIKQTLDNEQLLKGLLQQRLDELSSLIGQSTRQKSLNNAYGRLSGMLLVPDAPGAS
chain 2: SLGMEVGYRLIPMVDFQQDGELLGRIRSIRKKFAQDMGFLPPVVHIRDNMDLQPARYRILMKGVEIGSGDAYPGRWLAINPGTAAGTLPGEKTVDPAFGLDAIWIESALKEQAQIQGFTVVEASTVVATHLNHLIGQFSAELFGRQEAQQLLDRVSQEMPKLTEDLVPGVVTLTTLHKVLQNLLAEKVPIRDMRTILETLAEHAPLQSDPHELTAVVRVALGRAITQQWFPGNEEVQVIGLDTALERLLLQALQGGGGLEPGLADRLLAQTQEALSRQEMLGAPPVLLVNHALRPLLSRFLRRSLPQLVVLSNLELSDNRHIRMTATIGGK
B2: fused FliS−FliC^C construct (FliC^C fused to the C terminus of FliS) [not stated] / cytoplasmic domain of Salmonella enterica serovar Typhimurium FlhA (FlhA^C) [Salmonella enterica serovar Typhimurium ST313] (parent complex)
chain 1: MYTASGIKAYAQVSVESAVMSASPHQLIEMLFDGANSALVRARLFLEQGDVVAKGEALSKAINIIDNGLKAGLDQEKGGEIATNLSELYDYMIRRLLQANLRNDAQAIEEVERLLSNIAEAWKQISPKASFQESRGTASGAGGSEGGGSEGGTSGATEDSDYATEVSNMSRAQILQQAGTSVLAQANQVPQNVLSLLR
chain 2: B1 chain 2

Variants of: B1
Test: ITC; parent: 1; read off a plot

| Variant | ratio to parent |
| --- | --- |
| chain 2 SLGMEVGYRLIPMVDFQQDGELLGRIRSIRKKFAQDMGFLPPVVHIRDNMDLQPARYRILMKGVEIGSGDAYPGRWLAINPGTAAGTLPGEKTVDPAAGLDAIWIESALKEQAQIQGFTVVEASTVVATHLNHLIGQFSAELFGRQEAQQLLDRVSQEMPKLTEDLVPGVVTLTTLHKVLQNLLAEKVPIRDMRTILETLAEHAPLQSDPHELTAVVRVALGRAITQQWFPGNEEVQVIGLDTALERLLLQALQGGGGLEPGLADRLLAQTQEALSRQEMLGAPPVLLVNHALRPLLSRFLRRSLPQLVVLSNLELSDNRHIRMTATIGGK [chain 2 F98A] | ~9 |
| chain 2 SLGMEVGYRLIPMVDFQQDGELLGRIRSIRKKFAQDMGFLPPVVHIRDNMDLQPARYRILMKGVEIGSGDAYPGRWLAANPGTAAGTLPGEKTVDPAFGLDAIWIESALKEQAQIQGFTVVEASTVVATHLNHLIGQFSAELFGRQEAQQLLDRVSQEMPKLTEDLVPGVVTLTTLHKVLQNLLAEKVPIRDMRTILETLAEHAPLQSDPHELTAVVRVALGRAITQQWFPGNEEVQVIGLDTALERLLLQALQGGGGLEPGLADRLLAQTQEALSRQEMLGAPPVLLVNHALRPLLSRFLRRSLPQLVVLSNLELSDNRHIRMTATIGGK [chain 2 I79A] | ~6 |
| chain 2 SLGMEVGYRLIPMVDFQQDGELLGRIRSIRKKFAQDMGFLPPVVHIRDNMDLQPARYRILMKGVEIGSGDAYPGRWLAINPGTAAGTLPGEKTVDPAFGLDAIWIESALKEQAQIQGFTVVEASTGVATHLNHLIGQFSAELFGRQEAQQLLDRVSQEMPKLTEDLVPGVVTLTTLHKVLQNLLAEKVPIRDMRTILETLAEHAPLQSDPHELTAVVRVALGRAITQQWFPGNEEVQVIGLDTALERLLLQALQGGGGLEPGLADRLLAQTQEALSRQEMLGAPPVLLVNHALRPLLSRFLRRSLPQLVVLSNLELSDNRHIRMTATIGGK [chain 2 V126G] | ~4 |
| chain 2 SLGMEVGYRLIPMVDFQQDGELLGRIRSIRKKFAQDMGFLPPVVHIRDNMDLQPARYRILMKGVEIGSGDAYPGRWLAINPGTAAGTLPGEKTVDPAFGLDAIWIESALKEQAQIQGFTVKEASTVVATHLNHLIGQFSAELFGRQEAQQLLDRVSQEMPKLTEDLVPGVVTLTTLHKVLQNLLAEKVPIRDMRTILETLAEHAPLQSDPHELTAVVRVALGRAITQQWFPGNEEVQVIGLDTALERLLLQALQGGGGLEPGLADRLLAQTQEALSRQEMLGAPPVLLVNHALRPLLSRFLRRSLPQLVVLSNLELSDNRHIRMTATIGGK [chain 2 V121K] | ~7 |
| chain 2 SLGMEVGYRLIPMVDFQQDGELLGRIRSIRKKFAQDMGFLPPVVHIRDNMDLQPARYRILMKGVEIGSGDAYPGRWLAINPGTAAGTLPGEKTVDPAFGLDAIWIESALKEQAQIQGFTVVEASTVVATHLNHLIGQFSAELFGRQEAQQLLDRVSQEMPKLTEDLVPGVVTLTTLHKVLQNLLAEKVPIRDMRTILETLAEHAPLQSDPHELTAVVRVALGRAITQQWFPGNEEVQVIGLDTALERLLLQALQGGGGLEPGLADRLLAQTQEALSRQKGGGAPPVLLVNHALRPLLSRFLRRSLPQLVVLSNLELSDNRHIRMTATIGGK [chain 2 E279K, chain 2 M280G, chain 2 L281G] | ~10 |
| chain 2 SLGMEVGYRLIPMVDFQQDGELLGRIRSIRKKFAQDMGFLPPVVHIRDNMDLQPARYRILMKGVEIGSGDAYPGRWLAINPGTAAGTLPGEKTVDPAFGLDAIWIESALKEQAQIQGFTVVEASTVVAMHLNHLIGQFSAELFGRQEAQQLLDRVSQEMPKLTEDLVPGVVTLTTLHKVLQNLLAEKVPIRDMRTILETLAEHAPLQSDPHELTAVVRVALGRAITQQWFPGNEEVQVIGLDTALERLLLQALQGGGGLEPGLADRLLAQTQEALSRQEMLGAPPVLLVNHALRPLLSRFLRRSLPQLVVLSNLELSDNRHIRMTATIGGK [chain 2 T129M] | ~3.3 |
| chain 2 SLGMEVGYRLIPMVDFQQDGELLGRIRSIRKKFAQDMGFLPPVVHIRDNMDLQPARYRILMKGVEIGSGDAYPGRWLAINPGTAAGTLPGEKTVDPAFGLDAIWIESALKEQAQIQGFTVVEASTVVATHLNHLIGQFSAELFGRQEAQQLLDRVSQEMPKLTEDLVPGVVTLTTLHKVLQNLLAEKVPIRDMRTILETLAEHAPLQSDPHELTAVVRVALGRAITQQWFPGNEEVQVIGLDTALERLLLQALQGGGGLEPGLADRLLAQTQEALSRQKMLGAPPVLLVNHALRPLLSRFLRRSLPQLVVLSNLELSDNRHIRMTATIGGK [chain 2 E279K] | ~5 |

Variants of: B2
Test: ITC; parent: 1; read off a plot

| Variant | ratio to parent |
| --- | --- |
| chain 2 SLGMEVGYRLIPMVDFQQDGELLGRIRSIRKKFAQDMGFLPPVVHIRDNMDLQPARYRILMKGVEIGSGDAYPGRWLAINPGTAAGTLPGEKTVDPAFGLDAIWIESALKEQAQIQGFTVVEASTGVATHLNHLIGQFSAELFGRQEAQQLLDRVSQEMPKLTEDLVPGVVTLTTLHKVLQNLLAEKVPIRDMRTILETLAEHAPLQSDPHELTAVVRVALGRAITQQWFPGNEEVQVIGLDTALERLLLQALQGGGGLEPGLADRLLAQTQEALSRQEMLGAPPVLLVNHALRPLLSRFLRRSLPQLVVLSNLELSDNRHIRMTATIGGK [chain 2 V126G] | ~15 |
| chain 2 SLGMEVGYRLIPMVDFQQDGELLGRIRSIRKKFAQDMGFLPPVVHIRDNMDLQPARYRILMKGVEIGSGDAYPGRWLAINPGTAAGTLPGEKTVDPAFGADAIWIESALKEQAQIQGFTVVEASTVVATHLNHLIGQFSAELFGRQEAQQLLDRVSQEMPKLTEDLVPGVVTLTTLHKVLQNLLAEKVPIRDMRTILETLAEHAPLQSDPHELTAVVRVALGRAITQQWFPGNEEVQVIGLDTALERLLLQALQGGGGLEPGLADRLLAQTQEALSRQEMLGAPPVLLVNHALRPLLSRFLRRSLPQLVVLSNLELSDNRHIRMTATIGGK [chain 2 L100A] | ~4 |
| chain 2 SLGMEVGYRLIPMVDFQQDGELLGRIRSIRKKFAQDMGFLPPVVHIRDNMDLQPARYRILMKGVEIGSGDAYPGRWLAANPGTAAGTLPGEKTVDPAFGLDAIWIESALKEQAQIQGFTVVEASTVVATHLNHLIGQFSAELFGRQEAQQLLDRVSQEMPKLTEDLVPGVVTLTTLHKVLQNLLAEKVPIRDMRTILETLAEHAPLQSDPHELTAVVRVALGRAITQQWFPGNEEVQVIGLDTALERLLLQALQGGGGLEPGLADRLLAQTQEALSRQEMLGAPPVLLVNHALRPLLSRFLRRSLPQLVVLSNLELSDNRHIRMTATIGGK [chain 2 I79A] | ~10 |
| chain 2 SLGMEVGYRLIPMVDFQQDGELLGRIRSIRKKFAQDMGFLPPVVHIRDNMDLQPARYRILMKGVEIGSGDAYPGRWLAINPGTAAGTLPGEKTVDPAFGLDAIWIESALKEQAQIQGFTVKEASTVVATHLNHLIGQFSAELFGRQEAQQLLDRVSQEMPKLTEDLVPGVVTLTTLHKVLQNLLAEKVPIRDMRTILETLAEHAPLQSDPHELTAVVRVALGRAITQQWFPGNEEVQVIGLDTALERLLLQALQGGGGLEPGLADRLLAQTQEALSRQEMLGAPPVLLVNHALRPLLSRFLRRSLPQLVVLSNLELSDNRHIRMTATIGGK [chain 2 V121K] | ~12 |
| chain 2 SLGMEVGYRLIPMVDFQQDGELLGRIRSIRKKFAQDMGFLPPVVHIRDNMDLQPARYRILMKGVEIGSGDAYPGRWLAINPGTAAGTLPGEKTVVPAFGLDAIWIESALKEQAQIQGFTVVEASTVVATHLNHLIGQFSAELFGRQEAQQLLDRVSQEMPKLTEDLVPGVVTLTTLHKVLQNLLAEKVPIRDMRTILETLAEHAPLQSDPHELTAVVRVALGRAITQQWFPGNEEVQVIGLDTALERLLLQALQGGGGLEPGLADRLLAQTQEALSRQEMLGAPPVLLVNHALRPLLSRFLRRSLPQLVVLSNLELSDNRHIRMTATIGGK [chain 2 D95V] | ~15 |

Variants of: B2
Test: ITC; parent: 1; read off a plot
Remark: another data set of the same source

| Variant | ratio to parent |
| --- | --- |
| chain 1 MYTASGIKAYAQGSVESAVMSASPHQLIEMLFDGANSALVRARLFLEQGDVVAKGEALSKAINIIDNGLKAGLDQEKGGEIATNLSELYDYMIRRLLQANLRNDAQAIEEVERLLSNIAEAWKQISPKASFQESRGTASGAGGSEGGGSEGGTSGATEDSDYATEVSNMSRAQILQQAGTSVLAQANQVPQNVLSLLR [chain 1 V13G] | ~6.5 |

Source: PMC5932034 (2018)
